The text below walks through data of patent US20190315838A1 (MIT, published 2019).

The target of assay [1] is T1, Zika virus envelope protein, strain ILM (Brazil Paraiba 2015) (Zika virus strain ILM (Brazil Paraiba …)).
T1 construct: also called Zika strain ILM; Zika virus EP

Assay [2] deals with T2, Zika virus envelope protein, strain MR766-NIID (Uganda 1947) (Zika virus strain MR766-NIID (Uganda …, UniProt Q32ZE1 291-790)).
Assay [3] deals with T2, Zika virus envelope protein, strain …. This is another data set of the same source.
Assay [4] addresses T1, Zika virus envelope protein, strain ILM …. The experiment in a line: cell-based or functional assay.
In assay [5] the target is Zika virus envelope protein, strain H/PF/2013 (French Polynesia 2013) (Zika virus strain H/PF/2013 (French …, UniProt A0A024B7W1 291-794)). The experiment in a line: cell-based or functional assay.

B1: fusion loop targeting pan-flavivirus antibody 4G2 (antibody, V domains shown)
VH: EVQLQQSGPELVKPGTSVKISCKTSGYTFTEYTIHWVKQSHGKSLAWIGGIDPNSGGTNYSPNFKGKATLTVDKSSSTAYMDLRSLSSEDSAVYFCARIYHYDGYFDVWGAGTAVTVSS
VL: DIKMTQSPSSMYASLGERVTITCKASQDINSYLTWFQQKPGKSPKTLIYRANRLIDGVPSRFSGSGSGQDYSLTISSLDYEDMGIYYCLQYDEFPPTFGGGTKLEIKR
B1 returned a Kd in assay [1] of 6.41 µg/mL.

B2: mAb 7 (antibody, V domains shown)
VH: EVQLLESGGGLVQPGGSLRLSCAASGFSFSTYSMHWVRQAPGKGLEWVSAISGEGDSAYYADSVKGRFEISRDNSKNTLYLQMNKVRAEDTAVYYCVGGYSNFYYYYTMDAWGQGTMVTVSS
VL: DIVMTQSPASLSLSPGERATLSCRATQSIVTFLAWYQQKPGQAPRLLIYDASTNASGIPARFSGSRSGTDFTLTITRLEPEDFAVYYCQQRYNWPPYSFGQGTKLEIK
notes: also called VH.2 / VL.4
In the case of B2, the “EC50 (read off the curve)” value in assay [2] is about 0.03 µg/mL. Besides, the results for the Kd in assay [3] and in assay [1] were 0.0265 µg/mL and 5.21 µg/mL, respectively.

B3: mAb 8 (antibody, V domains shown)
VH: EVQLLESGGGLVQPGGSLRLSCAASGFSFSTYSMHWVRQAPGKGLEWVSAISGEGDSAYYADSVKGRFTISRDNSKNTLYLQMNKVRAEDTAVYYCVGGYSNFYYYYTMDAWGQGTMVTVSS
VL: DIVMTQSPASLSLSPGERATLSCRATQSISTFLAWYQQKPGQAPRLLIYDASTRASGIPARFSGSRSGTDFTLTITRLEPEDFAVYYCQQRYNWPPYSFGQGTKLEIK
notes: also called VH.1 / VL.2
Consider B3, for which the concentration giving a half-maximal response (EC50 (read off the curve)) in assay [2] is about 0.03 µg/mL. In addition, in assay [4], the PRNT50 was 5.12 µg/mL. For the same molecule, in assay [5], the “ADE, viral titers at peak enhancement in THP1.2S cells” value is at least 3 fold and the PRNT50 came out at 5.09 µg/mL. Besides, in assay [1], the Kd is 19.3 µg/mL.

B4: mAb 3 (antibody, V domains shown)
VH: EVQLVESGGGLVQPGGSLRLSCSASGFTFSTYSMHWVRQAPGKGLEYVSAITGEGDSAFYADSVKGRFTISRDNSKNTLYFEMNSLRPEDTAVYYCVGGYSNFYYYYTMDVWGQGTTVTVSS
VL: EIVLTQSPATLSLSPGERATLSCRASQSISTFLAWYQHKPGQAPRLLIYDASTRATGVPARFSGSRSGTDFTLTISTLEPEDFAVYYCQQRYNWPPYTFGQGTKVEIK
notes: also called VH.4 / VL.3
On to B4, for which, in assay [2], the “EC50 (read off the curve)” value is about 0.8 µg/mL. This molecule returned a Kd in assay [3] of 0.0248 µg/mL.

B5: mAb 6 (antibody, V domains shown)
VH: EVQLVESGGGLVQPGGSLRLSCSASGFSFSTYSMHWVRQAPGKGLEYVSAITGEGDSAFYADSVKGRFTISRDNSKNTLYFEMNSLRPEDTAVYYCVGGYSNFYYYYTMDAWGQGTSVTVSS
VL: EIVLTQSPASLSLSPGERATLSCRATQSISTFLAWYQHKPGQAPRLLIYDASTRASGVPARFSGSRSGTDFTLTISSLEPEDFAVYYCQQRYNWPPYSFGQGTKVEIK
notes: also called VH.3 / VL.1
Consider B5, for which the “EC50 (read off the curve)” value in assay [2] is about 0.03 µg/mL. Besides, in assay [4], the PRNT50 was 0.0597 µg/mL. The Kd in assay [1] was found to be 3.85 µg/mL.

What is called Kd is a measure of binding affinity in units of concentration. Usually EC50 (read off the curve) stands for the concentration that produces a half-maximal response. Low readings indicate a more potent agent, high ones a less potent agent.
